Patent publication US20210145976A1

Assays:
[1] = biological target: T1, recombinant biotinylated CD71 extracellular domain (Sino Biologics) with an N-terminal 6His tag (human), P02786; assay: screening ELISA
[2] = biological target: T1, recombinant biotinylated CD71 …; assay: screening ELISA, ratio

T1 sequence (P02786 other isoform, or with tags, fused parts or gaps): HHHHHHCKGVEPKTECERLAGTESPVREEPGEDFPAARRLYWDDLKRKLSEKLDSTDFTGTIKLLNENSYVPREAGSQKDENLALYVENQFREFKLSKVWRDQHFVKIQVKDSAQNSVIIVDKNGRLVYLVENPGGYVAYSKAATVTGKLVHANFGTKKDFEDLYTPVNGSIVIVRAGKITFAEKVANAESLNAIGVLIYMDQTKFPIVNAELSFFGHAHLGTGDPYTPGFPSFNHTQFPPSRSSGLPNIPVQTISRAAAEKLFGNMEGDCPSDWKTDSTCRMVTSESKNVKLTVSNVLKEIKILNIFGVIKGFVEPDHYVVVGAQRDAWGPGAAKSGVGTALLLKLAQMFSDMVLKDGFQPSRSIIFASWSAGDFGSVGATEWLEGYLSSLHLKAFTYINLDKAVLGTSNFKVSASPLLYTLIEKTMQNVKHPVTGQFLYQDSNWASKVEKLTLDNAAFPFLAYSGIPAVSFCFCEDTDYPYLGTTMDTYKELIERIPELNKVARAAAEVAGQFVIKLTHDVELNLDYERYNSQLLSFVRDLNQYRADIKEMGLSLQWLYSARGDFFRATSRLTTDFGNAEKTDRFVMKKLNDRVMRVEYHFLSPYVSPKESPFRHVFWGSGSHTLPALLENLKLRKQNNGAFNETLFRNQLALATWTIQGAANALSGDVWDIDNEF

hCD71 [1]: 446000
hCD71:HSA [2]: 21
B1: SEQ ID NO 280 (designed binder)
chain: MLPAPKNLVVRXVTEDSARLSWTAPDAAFDSFEIEYDEPYRGGEAIVLTVPGSERSYDLTSLKPGTEYPVSIGGVKGGITSDPLSAIFTT
modifications: X: residue not identified in the source; also: C-terminal poly-His tag, letters not given here
